Assay results reported in article doi:10.1101/2021.03.09.434688.
Where “and” joins values, the source holds several entries; their conditions need not be identical. Equal values may be shown once.

Tests used:
[1] = molecular target: fluorophore-labeled core peptide Fl_PsnA2(28-38); assay: fluorescence polarisation
[2] = molecular target: fluorophore-labeled minimal precursor peptide Fl_PsnA2(14-38); assay: fluorescence polarisation
[3] = molecular target: MP variants with one or two Glu-to-Ala mutations; assay: fluorescence polarisation
PsnB = assay: crystal structure

Row | Kd [1] | fold enhancement of the interaction with ADP (1 mM) against no nucleotide [2] | fold enhancement of the interaction with AMPPNP (1 mM) against no nucleotide [2] | fold tighter binding than the LP (Fl LP) [2] | fold reduction of the affinity against MP [3] | stoichiometry N (PsnB) | Substance
1 | > 100 µM | 9 fold | 2 fold | 6 fold | 10 fold and 4 fold | 2 | PsnB (enzyme)
2 | 11 µM |  |  |  |  |  | leader-fused PsnB (enzyme)
